Reference: patent US20260224620A1 (published 2026)

Molecular target: CD47 WT (YSD CD47) (UniProt Q08722 19-135)
Assay: flow cytometry, yeast surface display

Kd: ~330 pM
B1: B6H12 (antibody, V domains shown)
VH: EVQLVESGGDLVKPGGSLKLSCAASGFTFSGYGMSWVRQTPDKRLEWVATITSGGTYTYYPDSVKGRFTISRDNAKNTLYLQIDSLKSEDTAIYFCARSLAGNAMDYWGQGTSVTVSS
VL: DIVMTQSPATLSVTPGDRVSLSCRASQTISDYLHWYQQKSHESPRLLIKFASQSISGIPSRFSGSGSGSDFTLSINSVEPEDVGVYYCQNGHGFPRTFGGGTKLEIK
